Patent US20260224629A1 (Memorial Sloan Kettering, published 2026)

Molecular target: T1, murine DLL3 (murine, UniProt O88516 33-592)
T1 construct: whole, on cells; Expressed endogenously on the murine SCLC (mSCLC) cell line; also called mDLL3; mouse DLL3
T1 sequence (looked up): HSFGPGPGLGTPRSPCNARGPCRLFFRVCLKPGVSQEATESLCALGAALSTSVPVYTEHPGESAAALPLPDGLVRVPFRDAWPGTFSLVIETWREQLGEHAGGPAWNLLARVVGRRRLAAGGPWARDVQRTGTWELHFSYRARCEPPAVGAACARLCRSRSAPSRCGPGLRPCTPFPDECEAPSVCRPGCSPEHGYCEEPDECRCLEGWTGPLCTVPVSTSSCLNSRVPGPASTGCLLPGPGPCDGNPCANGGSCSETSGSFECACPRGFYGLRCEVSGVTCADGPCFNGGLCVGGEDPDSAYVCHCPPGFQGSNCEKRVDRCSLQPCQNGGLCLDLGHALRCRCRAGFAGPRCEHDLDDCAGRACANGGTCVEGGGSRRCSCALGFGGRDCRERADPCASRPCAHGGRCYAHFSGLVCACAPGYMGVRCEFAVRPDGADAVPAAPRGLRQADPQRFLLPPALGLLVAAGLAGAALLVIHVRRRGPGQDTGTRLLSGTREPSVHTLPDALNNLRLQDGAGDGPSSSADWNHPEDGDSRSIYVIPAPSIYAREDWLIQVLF
Assay: told in words; shown by lysis and IFN-γ release of CAR T cells in coculture with mSCLC cells that express murine DLL3
Experimental: The CAR consists of the SC16.8 single-chain variable fragment (scFv) and murine CD28 and CD3ζ domains. FIG. 2B measures the IFN-γ levels in supernatant of 24-hour coculture of murine CAR T cells with or without mSCLC cells. **P<0.01, ****P<0.0001 (2-way ANOVA, n=2). FIG. 2C depicts the survival of mice with metastatic mSCLC that were treated with the indicated doses of SC16.8m28mz CAR T cells (day 7) with or without 50 mg/kg cyclophosphamide pretreatment (day 6). **P<0.01 (log-rank test, n=4-6). FIG. 2D is a schematic of CAR design with SC16.8 scFv, murine CD28 and CD3ζ signaling domains, and the murine 1112 fusion transgene or murine 1118 transgene. IRES, internal ribosome entry site. FIG. 2E illustrates IFN-γ production by the respective CAR T cells in the absence and presence of mSCLC cells. *P<0.05, **P<0.01, ***P<0.001, ****P<0.0001 (2-way ANOVA and Student's t test, n=2-3). FIG. 2F depicts a luciferase killing assay with SC16.8 CAR T cells that express IL-12, IL-18, or no cytokine and 4H11 CAR T cells as negative control (n=3). FIGS. 2G and 2H depict serum IFN-γ and TNF-α levels (n=12-15) (2G) and circulating CAR T cells (n=5) (2H) in the blood of mice collected 3 days after treatment with the indicated CAR T cells. **P<0.01, ***P<0.001, ****P<0.0001 (1-way ANOVA). […] FIG. 2J illustrates the survival of mice in FIG. 2I. *P<0.05, ****P<0.0001 (log-rank test). […]

B1: SC16.8m28mz CAR (SC16.8 scFv with Flag-tag, murine CD28 transmembrane and intracellular domain and murine CD3zeta intracellular domain, on murine T cells) (scFv, V domains shown)
VH: QAQLQQSGAELVRPGTSVKVSCKASGYAFTNYLIEWVKQRPGQGLEWIGVINPGTGGTNYNENFKGKATLTADKSSSTAYMQLSSLTSDDSAVYFCARSPYDYHEGAMDYWGQGTSVTVSS
VL: EIQMTQSPSSMSASLGDRITITCQATQDIVKNLNWYQQKPGKPPSFLIYYAIELAEGVPSRFSGSGSGSDYSLTISNLESEDFADYYCLQFYEFPFTFGAGTKLELK
notes: Tested as a membrane CAR on transduced murine T cells; VH and VL are joined as an scFv; also called SC16.8 CAR (murine CAR T cells); the presently disclosed CAR
B1: binds.
